Here are results for 120 sequences from the supplement of paper PMC10126150.

± gives the standard deviation of the averaged measurements.
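Further: ATP exposure 15 min at 22 °C before imaging.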

The data set has as its system ATP. In words: switch fluorescence ratio, 500 uM ATP over buffer (Cy3 cluster intensity, sum of 5 cycles each) (fold (ratio)); higher = stronger signal-on switching upon ATP binding; sequences stand for … in TCGTCGGCAGCGTCAGATGTGTATAAGAGACAGTTTTTTTTTTTTTTTTTTTTTTTTT…TC. The conditions noted are these: aptamer strand: ATP DNA aptamer (quencher-CACCTGGGGGAGTATTGCGGAGGAAGG + anchor), 100 nM annealed; ATP concentration: 500 uM. A digest of the protocol:
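Values give the fluorescence ratio for each switch-domain sequence, averaged from per-cluster ratios of summed target-cycle to summed buffer-cycle Cy3 intensity. The Cy3-labelled switching-strand clusters sat on a modified Illumina MiSeq flow-cell, were annealed to 100 nM quencher-labelled ATP aptamer, and were imaged in selection buffer, then after 15 min with 500 uM ATP at 22 °C. Five cycles ran with NaOH stripping and re-annealing between them, and clusters outside 100-1000 RFU were excluded.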
With AAGTATCGTT, the switch fluorescence ratio turned out to be 0.999 ± 0.011. The result for TTTCTCCTTT reads 1.04 ± 0.035; that for AAAGTTTCCA, 0.993 ± 0.025; that for TCGTCGGGGA, 1.01 ± 0.014. The result for GATTTGGATT reads 0.993 ± 0.012. As for CGTTTGGCGG, the switch fluorescence ratio turned out to be 0.987 ± 0.064. Consider AATTTTGGCT, for which the switch fluorescence ratio stood at 0.964 ± 0.03. For the sequence TTTGAGTAAT, the switch fluorescence ratio worked out at 1.027 ± 0.0017. Take AAGATATCTG: the switch fluorescence ratio is 1.01 ± 0.032. In the case of GGGCGAATGG, the switch fluorescence ratio was 1.02 ± 0.029. In the case of TCAGTTATGG, the switch fluorescence ratio came to 1.001 ± 0.0086.

Turning to CGGTAGCTCT, the switch fluorescence ratio was determined as 0.989 ± 0.037. As for CGGGAAAATG, the switch fluorescence ratio was found to be 0.988 ± 0.012. As to TAGTTGTAAG, the switch fluorescence ratio is 0.994 ± 0.02.

In the case of GAAGGTACGG, the switch fluorescence ratio amounted to 1.04 ± 0.061. For TTTTATACG, the switch fluorescence ratio amounted to 1.36 ± 0.51. Regarding TAGGATCTGG, the switch fluorescence ratio stood at 0.995 ± 0.027. In the case of ATCTCATAGT it was 1 ± 0.025; in that of GGTTACCTTT, 0.996 ± 0.042. As for TCCGTTGTGG, the switch fluorescence ratio amounted to 0.991 ± 0.037. In the case of TTTAAGCGGT it was 0.996 ± 0.024; in that of TATTTTGTGC, 1.02 ± 0.012. In the case of AGAACCTTCG it was 3.17 ± 0.38; in that of ATAGCTTTGA, 1.02 ± 0.0014. In the case of TTTCGGTTTT, the switch fluorescence ratio came out at 1.04 ± 0.11.

In the case of TTAGGTTATC, the switch fluorescence ratio was 1.01 ± 0.016. In the case of GGGGAAAGGG it was 1 ± 0.034; in that of TATTAAACGA, 1.019 ± 0.0063. On to GGGGTGGAGC, for which the switch fluorescence ratio worked out at 1.05 ± 0.014.

For the sequence CAGAGTATCG, the switch fluorescence ratio came to 1 ± 0.021. As for TGGTTGGTGG, the switch fluorescence ratio was found to be 1.05 ± 0.09. Turning to TTTGTCTGTT, the switch fluorescence ratio was found to be 1.03 ± 0.038. The result for AGCGGGTTGG reads 1.029 ± 0.0082; that for AGAGGAGCGG, 1.02 ± 0.013; that for TAATGGCCTT, 0.9862 ± 0.0021. In the case of AAATAGGTTA it was 1.02 ± 0.046; in that of GGCATGGGTT, 1 ± 0.019. In the case of CGGTGACGGG it was 0.959 ± 0.014; in that of ATTATGAAAG, 0.969 ± 0.056; in that of GGTCCGGGTT, 1.006 ± 0.01. Regarding TTCGCAGGGT, the switch fluorescence ratio amounted to 1.039 ± 0.0029. In the case of GCCGCATGTG it was 1.28 ± 0.036; in that of TATCATCTTT, 1.01 ± 0.054. Regarding AGGGTAAAGT, the switch fluorescence ratio was found to be 0.98 ± 0.018. On to TGTAAGGGGG, for which the switch fluorescence ratio was determined as 0.989 ± 0.039. In the case of TTTCAAAAGG it was 1.01 ± 0.019. With ACAACAGGGG, the switch fluorescence ratio is 2.91 ± 0.65.

Consider ATTGTGGTTT, for which the switch fluorescence ratio was found to be 1.01 ± 0.034. The result for GGCCGTGTGG reads 0.998 ± 0.023; that for CGTTGGGGGA, 0.997 ± 0.029.

Regarding CGGTCGTAAC, the switch fluorescence ratio was 1.04 ± 0.018. For the sequence TTGTGATCTT, the switch fluorescence ratio was found to be 0.961 ± 0.02.

For ATTGGTTAAA, the switch fluorescence ratio turned out to be 1 ± 0.026. The result for ATGAATTGGA reads 0.989 ± 0.017; that for TAAAGGTCGT, 0.97444 ± 0.00071.

As for TAAAAGAGGT, the switch fluorescence ratio was 0.9962 ± 0.0081. On to TTAATCCATG, for which the switch fluorescence ratio was 0.988 ± 0.011. Turning to TTCGTCGCTG, the switch fluorescence ratio came out at 0.999 ± 0.037. In the case of CGAATTTAAG it was 1.009 ± 0.0062. As for TGGCGGTGAC, the switch fluorescence ratio was 1.02 ± 0.01.

Take AGGTAATCAT: the switch fluorescence ratio is 1.01 ± 0.05.

With CTTAAGGGCC, the switch fluorescence ratio was determined as 1.02 ± 0.012. Regarding GGTTTATTTT, the switch fluorescence ratio is 0.9946 ± 0.0013. The result for GACTGGGGG reads 1.0292 ± 0.00087; that for TTTTCTCTAG, 1.01 ± 0.055; that for GGTGTTGTTT, 0.963 ± 0.019. AATTTAGGGG: the switch fluorescence ratio came out at 0.989 ± 0.03.

For the sequence GCACATGAGA, the switch fluorescence ratio was 1.02 ± 0.021. For the sequence AGAGGAAAAC, the switch fluorescence ratio was determined as 1.08 ± 0.023. In the case of ACTAATGCTT it was 1.01 ± 0.034; in that of GTGGCGTAGA, 1.02 ± 0.012.

Regarding ATATTTCTGT, the switch fluorescence ratio is 0.981 ± 0.019. The result for CTATTCAGGT reads 1.01 ± 0.032.

TTTGCAAAGT: the switch fluorescence ratio is 1.005 ± 0.0069. The result for AATAAACAGA reads 1.02 ± 0.017; that for ATTTTAAACG, 0.979 ± 0.021. The result for CCATTCAGGT reads 1.04 ± 0.065; that for GCAAGGTTTT, 0.979 ± 0.027.

As to GGAGTTGTTG, the switch fluorescence ratio came to 0.99 ± 0.009. In the case of TTCGTACTTT, the switch fluorescence ratio turned out to be 1 ± 0.043.

CGGGGGTATG: the switch fluorescence ratio was found to be 0.994 ± 0.034.

For ATCTAGCAAC, the switch fluorescence ratio is 1.36 ± 0.049. In the case of TGTTGAGCAA it was 1.6 ± 0.013; in that of AATAAATT, 0.9585 ± 0.0081. For the sequence TAAAGGCTGG, the switch fluorescence ratio was found to be 1.015 ± 0.0052.

Consider AAGATCATGG, for which the switch fluorescence ratio worked out at 0.98235 ± 0.00028.

Turning to AGGGGAATGC, the switch fluorescence ratio was 1.09 ± 0.084. In the case of CCAGGGGTCT it was 1.22 ± 0.028; in that of TCAGGAATGG, 1.055 ± 0.0069.

As to CGGTTGTGAC, the switch fluorescence ratio was 0.994 ± 0.027.

Regarding ACATTTTTGC, the switch fluorescence ratio was 0.9897 ± 0.0011. For ATCTGGGCGG, the switch fluorescence ratio turned out to be 0.997 ± 0.029. In the case of ACTTGTGGGG it was 0.973 ± 0.037; in that of GCAAAAGGAG, 1 ± 0.059.

CAGGGCCATA: the switch fluorescence ratio is 1.02 ± 0.0042. With GATTGGGTAG, the switch fluorescence ratio stood at 0.999 ± 0.02. With GTTTCCGTTG, the switch fluorescence ratio worked out at 0.98414 ± 0.00058. The result for AAGGAGGTCC reads 0.97 ± 0.066; that for TCTGGCGGC, 0.981 ± 0.039; that for AAGTGCAAGC, 1.04 ± 0.027. The result for TAATGGAGTA reads 1.01 ± 0.052; that for TTTACTCGCG, 1 ± 0.038. As for GCGTTCTCGT, the switch fluorescence ratio worked out at 0.989 ± 0.018. Turning to CTCGTGAACT, the switch fluorescence ratio was 1.048 ± 0.0022. The result for TTTAAGGGTG reads 1.07 ± 0.037; that for CTGGGGGACG, 1.02 ± 0.016. The result for GCTAGAATAT reads 1.02 ± 0.014; that for GGTGGTGGGA, 0.977 ± 0.04; that for CTGATATAAG, 1.03 ± 0.017. In the case of TAGGGCCTTT it was 0.986 ± 0.023. Turning to AAGCCGGGGG, the switch fluorescence ratio was found to be 0.987 ± 0.019. With CGGCCGGTTG, the switch fluorescence ratio worked out at 1 ± 0.019. In the case of GAGGAAAATA it was 0.981 ± 0.011; in that of GCTGGGACAG, 0.999 ± 0.032; in that of AACCGGGGGT, 0.991 ± 0.038. Turning to CGGTAGTTGG, the switch fluorescence ratio was 0.983 ± 0.019.

CCAGCAGCGG: the switch fluorescence ratio turned out to be 1.12 ± 0.063. As for TGTTGATTTT, the switch fluorescence ratio came out at 1.03 ± 0.043. In the case of CCTGATCGAT it was 1.01 ± 0.02; in that of TGTAACTGAG, 1.0374 ± 3e-05.
